# Molecular target: beta-klotho
# Test: cell-based or functional assay
Substance,EC50 (ELK-luciferase assay) [nM],Efficacy (ELK-luciferase assay) [%]
"hFc.L15.hFGF21(L98R, P171G, Y179F) (Fc fusion)",2.6,78.3
"hFc.L15.hFGF21(L98R, P171G, S181P) (Fc fusion)",33.8,79.5
"hFc.L15.hFGF21(L98R, P171G, Y179A) (Fc fusion)",43.2,79.6
"hFc.L15.hFGF21(L98R, P171G, A180E) (Fc fusion)",1.9,79.6
"hFc.L15.hFGF21(L98R, P171G, A180S) (Fc fusion)",2.18,84.7
"hFc.L15.hFGF21(L98R, P171G, Y179P) (Fc fusion)",428,44.4
"hFc.L15.hFGF21(L98R, P171G, GG182-3) (Fc fusion)",1940,84.2
"hFc.L15.hFGF21(L98R, P171G, A180P) (Fc fusion)",617,77.1
"hFc.L15.hFGF21(L98R, P171G, A180G) (Fc fusion)",3.25,76.9
"hFc.L15.hFGF21(L98R, P171G, S181A) (Fc fusion)",2.66,73.5
MKEDD.hFGF21.L15.hFc (Fc fusion),834,83.1
"hFc.L15.hFGF21(L98R, P171G, S181L) (Fc fusion)",3.46,72.6
"hFc.L15.hFGF21(L98R, P171G, GGGGG182-6) (Fc fusion)",4310,99.7
"hFc.L15.hFGF21(L98R, P171G) (Fc fusion)",2.5,76.1

# More lines, now with the values ahead:
EC50 (ELK-luciferase assay) [nM],Efficacy (ELK-luciferase assay) [%],Substance
7.8,77.4,"hFc.L15.hFGF21(L98R, P171G, 1-179) (Fc fusion)"
272,69.9,"hFc.L15.hFGF21(L98R, P171G, S181P, P182) (Fc fusion)"
3.43,77.3,"hFc.L15.hFGF21(L98R, P171G, S181G) (Fc fusion)"
167,63.9,"hFc.L15.hFGF21(1-178, L98R, P171G) (Fc fusion)"
6.1,85.9,"hFc.L15.hFGF21(L98R, P171G, P182) (Fc fusion)"
25.3,74.8,"hFc.L15.hFGF21(L98R, P171G, Y179S) (Fc fusion)"
130,87.9,"hFc.L15.hFGF21(L98R, P171G, S181K) (Fc fusion)"
6.5,71.1,"hFc.L15.hFGF21(L98R, P171G, G182) (Fc fusion)"
3.07,77.6,"hFc.L15.hFGF21(L98R, P171G, S181T) (Fc fusion)"
61,82.6,"hFc.L15.hFGF21(L98R, P171G, Y179G) (Fc fusion)"
